In PMC11587861, “A high-throughput search for intracellular factors that affect RNA folding identifies E. coli proteins PepA and YagL as RNA chaperones that promote RNA remodelling”:

Legend:
PepA-H6 = molecular target: T1, PepA-H6 (Escherichia coli, UniProt P68767 1-503); test: filter binding; 75 mM Tris-HCl pH 7.5, 0.4 mM spermidine, 0.1 mM MgCl2, 50 mM NaCl, 0.5 mM EDTA, 0.25 mM DTT, 6% glycerol; 10 min at room temperature; 50 fmol RNA in 60 µL, protein 0-10 µM; conditions: protein: recombinant, tags: C-terminal His6, chain copies: 6, label: 5'-32P (printed as [31]P)
T1 sequence: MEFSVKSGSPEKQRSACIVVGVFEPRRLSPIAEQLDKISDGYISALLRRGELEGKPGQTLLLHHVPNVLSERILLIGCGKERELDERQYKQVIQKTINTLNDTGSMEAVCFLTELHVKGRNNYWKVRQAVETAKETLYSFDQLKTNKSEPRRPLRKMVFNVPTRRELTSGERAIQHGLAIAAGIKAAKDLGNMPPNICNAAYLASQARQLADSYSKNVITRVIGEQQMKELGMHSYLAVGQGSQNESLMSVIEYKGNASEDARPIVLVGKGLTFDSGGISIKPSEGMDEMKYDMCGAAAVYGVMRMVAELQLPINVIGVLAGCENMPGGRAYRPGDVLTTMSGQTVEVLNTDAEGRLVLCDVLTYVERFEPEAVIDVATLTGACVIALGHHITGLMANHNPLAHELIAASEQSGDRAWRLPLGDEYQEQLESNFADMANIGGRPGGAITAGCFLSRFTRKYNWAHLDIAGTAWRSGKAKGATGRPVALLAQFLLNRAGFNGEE

YagL-H6 = molecular target: T2, YagL-H6 (Escherichia coli, UniProt P77607 1-232); test: as above; conditions: protein: recombinant, label: 5'-32P (printed as [31]P)
T2 sequence: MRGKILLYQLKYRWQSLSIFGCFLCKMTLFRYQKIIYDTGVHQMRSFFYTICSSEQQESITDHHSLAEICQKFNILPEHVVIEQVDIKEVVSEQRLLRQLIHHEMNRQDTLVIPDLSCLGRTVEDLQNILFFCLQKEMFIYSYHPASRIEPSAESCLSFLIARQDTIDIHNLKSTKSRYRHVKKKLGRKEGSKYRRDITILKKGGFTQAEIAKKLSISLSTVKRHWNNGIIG

CUGCUAGAGAUUUUCCACAU (ssRNA) [21 R-] was tested, and the Kd (PepA-H6; single strand) was 600 ± 300 nM and the Kd (YagL-H6; single strand) was 5000 ± 1200 nM.

In the case of AUGUGGAAAAUCUCUAGCAGU (ssRNA) [21 R+], the Kd (PepA-H6; single strand) is reported as 2000 ± 600 nM and the Kd (YagL-H6; single strand) is reported as 4500 ± 300 nM.

Binder GCUCUAGAGCAUUAUGUUCAGAUAAGG (structured_RNA) [hairpin] has a Kd (PepA-H6; hairpin) of 600 ± 400 nM and a Kd (YagL-H6; hairpin) of 2400 ± 300 nM.
